Laboratory results reported in paper PMC4090420.

How the values were obtained:
b12 3–5 αIM H24A (human) = assay: ELISA
b12 3–5 αIM L84A (human) = assay: ELISA
b12 3–5 αIM F25A (human) = assay: ELISA
[1] = target: b12 3–5 αIM (Homo sapiens scaffold (engineered FNfn10)) (UniProt P02751); assay: SPR
Chain of b12 3–5 αIM (Homo sapiens scaffold (engineered FNfn10)) (P02751 whole entry, looked up, change not shown): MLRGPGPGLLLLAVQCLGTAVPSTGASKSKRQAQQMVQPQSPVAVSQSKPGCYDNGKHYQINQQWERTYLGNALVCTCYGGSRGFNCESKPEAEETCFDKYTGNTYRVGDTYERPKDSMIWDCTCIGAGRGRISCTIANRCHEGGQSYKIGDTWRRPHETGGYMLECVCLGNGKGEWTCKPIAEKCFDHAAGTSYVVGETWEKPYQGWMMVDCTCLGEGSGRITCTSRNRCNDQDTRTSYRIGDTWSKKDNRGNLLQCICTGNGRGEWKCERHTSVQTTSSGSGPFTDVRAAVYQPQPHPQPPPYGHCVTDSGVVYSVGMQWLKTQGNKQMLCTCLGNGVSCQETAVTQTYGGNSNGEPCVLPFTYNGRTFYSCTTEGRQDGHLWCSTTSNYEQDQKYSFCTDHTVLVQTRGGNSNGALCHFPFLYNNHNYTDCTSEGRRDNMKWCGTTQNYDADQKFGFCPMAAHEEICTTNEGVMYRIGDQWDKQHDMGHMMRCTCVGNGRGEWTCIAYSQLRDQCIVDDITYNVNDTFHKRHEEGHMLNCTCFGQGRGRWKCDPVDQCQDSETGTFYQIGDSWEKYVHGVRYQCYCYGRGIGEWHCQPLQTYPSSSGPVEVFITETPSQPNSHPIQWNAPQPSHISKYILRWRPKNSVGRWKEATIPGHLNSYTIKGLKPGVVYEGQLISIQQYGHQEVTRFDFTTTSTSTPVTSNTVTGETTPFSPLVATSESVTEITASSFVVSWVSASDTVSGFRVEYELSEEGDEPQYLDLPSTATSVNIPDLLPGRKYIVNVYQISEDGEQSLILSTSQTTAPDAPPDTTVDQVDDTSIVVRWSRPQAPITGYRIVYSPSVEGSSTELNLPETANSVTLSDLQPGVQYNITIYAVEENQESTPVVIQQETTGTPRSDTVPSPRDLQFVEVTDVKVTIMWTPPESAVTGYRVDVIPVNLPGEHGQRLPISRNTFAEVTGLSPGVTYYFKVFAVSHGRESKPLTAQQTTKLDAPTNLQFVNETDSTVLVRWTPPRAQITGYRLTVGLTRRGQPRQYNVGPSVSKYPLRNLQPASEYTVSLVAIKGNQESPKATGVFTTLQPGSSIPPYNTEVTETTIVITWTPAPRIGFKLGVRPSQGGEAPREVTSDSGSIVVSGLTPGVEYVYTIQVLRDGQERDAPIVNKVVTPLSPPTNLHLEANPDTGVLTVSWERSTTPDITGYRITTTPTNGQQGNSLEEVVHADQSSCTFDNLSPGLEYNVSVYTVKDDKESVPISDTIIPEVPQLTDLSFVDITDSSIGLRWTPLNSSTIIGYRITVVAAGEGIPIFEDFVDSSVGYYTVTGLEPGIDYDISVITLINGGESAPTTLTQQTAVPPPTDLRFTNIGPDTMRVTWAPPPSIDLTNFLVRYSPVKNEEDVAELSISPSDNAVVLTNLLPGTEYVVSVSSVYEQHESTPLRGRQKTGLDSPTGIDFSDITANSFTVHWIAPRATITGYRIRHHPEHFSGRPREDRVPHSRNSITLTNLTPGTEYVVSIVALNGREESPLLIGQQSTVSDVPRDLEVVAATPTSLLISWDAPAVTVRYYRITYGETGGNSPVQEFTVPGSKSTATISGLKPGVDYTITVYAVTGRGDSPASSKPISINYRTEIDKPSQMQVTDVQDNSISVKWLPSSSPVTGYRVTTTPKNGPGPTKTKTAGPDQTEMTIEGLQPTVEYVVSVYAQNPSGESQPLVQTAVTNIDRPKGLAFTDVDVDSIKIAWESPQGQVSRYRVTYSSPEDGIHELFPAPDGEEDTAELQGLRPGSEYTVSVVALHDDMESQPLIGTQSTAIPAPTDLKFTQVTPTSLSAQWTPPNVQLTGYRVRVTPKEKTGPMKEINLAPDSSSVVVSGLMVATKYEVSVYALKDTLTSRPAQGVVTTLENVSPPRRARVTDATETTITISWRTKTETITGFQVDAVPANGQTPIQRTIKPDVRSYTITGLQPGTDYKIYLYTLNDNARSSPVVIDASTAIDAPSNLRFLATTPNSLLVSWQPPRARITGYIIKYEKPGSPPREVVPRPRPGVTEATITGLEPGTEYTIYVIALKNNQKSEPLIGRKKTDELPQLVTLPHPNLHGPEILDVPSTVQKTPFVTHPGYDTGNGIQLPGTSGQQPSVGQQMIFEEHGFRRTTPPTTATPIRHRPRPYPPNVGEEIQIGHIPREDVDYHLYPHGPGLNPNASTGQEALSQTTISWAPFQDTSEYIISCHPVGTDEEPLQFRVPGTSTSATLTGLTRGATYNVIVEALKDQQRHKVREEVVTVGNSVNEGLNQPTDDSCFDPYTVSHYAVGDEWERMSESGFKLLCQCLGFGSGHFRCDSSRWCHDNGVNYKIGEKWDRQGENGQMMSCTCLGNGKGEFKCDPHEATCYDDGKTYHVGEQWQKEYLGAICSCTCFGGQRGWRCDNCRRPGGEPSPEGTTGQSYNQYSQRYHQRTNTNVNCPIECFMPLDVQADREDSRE

**Q.** With b12 MAb (antibody) as the substance, how does the fold decrease of binding against wild type b12 3–5 αIM (b12 3–5 αIM H24A (human)) read?
**A.** The fold decrease of binding against wild type b12 3–5 αIM was > 10 fold.

**Q.** And the fold decrease of binding against wild type b12 3–5 αIM (b12 3–5 αIM L84A (human))?
**A.** Its fold decrease of binding against wild type b12 3–5 αIM is 5 fold.

**Q.** And the fold decrease of binding against wild type b12 3–5 αIM (b12 3–5 αIM F25A (human))?
**A.** The fold decrease of binding against wild type b12 3–5 αIM was > 10 fold.

**Q.** What does the source list for b12 Fab?
**A.** Kd [1]: 43 nM; koff [1]: 0.0068 s⁻¹
